{
  "source": "patent US5912325A",
  "about": "“Biologically active porcine somatotropin polypeptides and methods of using the same” (American Cyanamid Company, priority 1994, dated 1999)",
  "system": "hypox rats",
  "assay": "Biological assay for growth-promoting activity: net weight gain of hypophysectomized rats",
  "type": "in vivo, rat",
  "settings": "5 ug/day pST alone, day 0 to 4 and day 7 to 10, versus untreated rats, FIG. 4",
  "description": "Hypox rats are injected subcutaneously with pST (5 ug/day) with or without antibody (2 mg/day) for 5 consecutive days and the net weight gain is recorded. Immune antibodies are prepared from two pigs that had been immunized with pST (54-95) and the control antibody is prepared from a pooled sera of non-immunized pigs. *,p<0.05; **,p<0.01.\nIn a study similar to that shown in FIG. 3, except antibody is injected at a dose of 0.5 mg/day and for a longer period of time. *,p<0.05; **,p<0.01; ***,p<0.001.\nHypophysectomized female Sprague-Dawley rats, 21 days of age and weighing 50-64 g, are obtained from Taconic Farm, Germantown, N.Y. and used to assay for Growth Hormone (GH). Female crossbred swine (Duroc x Yorkshire x Hampshire), 3-5 months of age, weighing 30-50 kg, are obtained from the breeding colony of American Cyanamid Co., Princeton, N.J. and used for the production of antibodies.\nHypophysectomized rats are randomly allocated to groups of eight. Antibody mixed with 5 ug pST at room temperature for 1 hour is administered subcutaneously in the neck region of experimental rats. All animals are treated daily for various periods of time and their growth is recorded as net weight gain. […]\nThe growth enhancing effect of these antibodies are evaluated in hypox rats. […] Net weight gains are recorded. […]",
  "data": [
    {"molecule": "pST: single chain polypeptide of 191 amino acids, growth hormone native to swine (protein, UniProt P01248 27-216, looked up) Somatotropin: FPAMPLSSLFANAVLRAQHLHQLAADTYKEFERAYIPEGQRYSIQNAQAAFCFSETIPAPTGKDEAQQRSDVELLRFSLLLIQSWLGPVQFLSRVFTNSLVFGTSDRVYEKLKDLEEGIQALMRELEDGSPRAGQILKQTYDKFDTNLRSDDALLKNYGLLSCFKKDLHKAETYLRVMKCRRFVESSCAF", "values": [
      {"measurement": "growth (net weight gain)", "result": "marked growth as compared to untreated rats"}
    ]}
  ]
}
